Details: Homo sapiens; pH 2.7; Thermal; DSC; Gly-HCl 0.05 M; whole UniProt chain shown

B1: Lysozyme C wild type, P61626 (protein)
chain: MKALIVLGLVLLSVTVQGKVFERCELARTLKRLGMDGYRGISLANWMCLAKWESGYNTRATNYNAGDRSTDYGIFQINSRYWCNDGKTPGAVNACHLSCSALLQDNIADAVACAKRVVRDPQGIRAWVAWRNRCQNRDVRQYVQGCGV
Q: Which results are given for B1?
A: Tm: 64.9 °C; heat capacity change of unfolding: 1.58 kcal/mol/K; unfolding enthalpy (calorimetric): 114 kcal/mol
